Consider two molecules from article PMC4331651, “The use of SMALPs as a novel membrane protein scaffold for structure study by negative stain electron microscopy” (Biochimica et Biophysica Acta, 2015).

Test [1] concerns the target Escherichia coli multidrug transporter AcrB bearing a C-terminal octahistidine tag, in SMA lipid particles (SMALPs) (Escherichia coli) (UniProt P31224). Kind of test: AUC; protomers to trimer; sedimentation velocity, 0.5 mg/mL AcrB-SMALP, 50 mM Tris pH 8 with 10 mM or 500 mM NaCl, 40,000 rpm, 20 h, 4 °C, c(s) analysis.
Test [2] has the same target. Nature of the test: negative stain electron microscopy (single particle, 3D reconstruction); protomers to trimer; AcrB SMALPs ~20 ug/mL on carbon-coated grids, 1% uranyl acetate; 6884 singlet particles; refined with C1 and with C3 symmetry.
Another test deals with T1, AcrB (Escherichia coli, UniProt P31224).
T1 construct: full-length AcrB with C-terminal octahistidine tag (kept); expressed in E. coli, extracted with styrene maleic acid co-polymer into SMALPs, cobalt resin purified; 110 kDa band; homotrimer (~360 kDa)
T1 sequence (P31224 whole entry): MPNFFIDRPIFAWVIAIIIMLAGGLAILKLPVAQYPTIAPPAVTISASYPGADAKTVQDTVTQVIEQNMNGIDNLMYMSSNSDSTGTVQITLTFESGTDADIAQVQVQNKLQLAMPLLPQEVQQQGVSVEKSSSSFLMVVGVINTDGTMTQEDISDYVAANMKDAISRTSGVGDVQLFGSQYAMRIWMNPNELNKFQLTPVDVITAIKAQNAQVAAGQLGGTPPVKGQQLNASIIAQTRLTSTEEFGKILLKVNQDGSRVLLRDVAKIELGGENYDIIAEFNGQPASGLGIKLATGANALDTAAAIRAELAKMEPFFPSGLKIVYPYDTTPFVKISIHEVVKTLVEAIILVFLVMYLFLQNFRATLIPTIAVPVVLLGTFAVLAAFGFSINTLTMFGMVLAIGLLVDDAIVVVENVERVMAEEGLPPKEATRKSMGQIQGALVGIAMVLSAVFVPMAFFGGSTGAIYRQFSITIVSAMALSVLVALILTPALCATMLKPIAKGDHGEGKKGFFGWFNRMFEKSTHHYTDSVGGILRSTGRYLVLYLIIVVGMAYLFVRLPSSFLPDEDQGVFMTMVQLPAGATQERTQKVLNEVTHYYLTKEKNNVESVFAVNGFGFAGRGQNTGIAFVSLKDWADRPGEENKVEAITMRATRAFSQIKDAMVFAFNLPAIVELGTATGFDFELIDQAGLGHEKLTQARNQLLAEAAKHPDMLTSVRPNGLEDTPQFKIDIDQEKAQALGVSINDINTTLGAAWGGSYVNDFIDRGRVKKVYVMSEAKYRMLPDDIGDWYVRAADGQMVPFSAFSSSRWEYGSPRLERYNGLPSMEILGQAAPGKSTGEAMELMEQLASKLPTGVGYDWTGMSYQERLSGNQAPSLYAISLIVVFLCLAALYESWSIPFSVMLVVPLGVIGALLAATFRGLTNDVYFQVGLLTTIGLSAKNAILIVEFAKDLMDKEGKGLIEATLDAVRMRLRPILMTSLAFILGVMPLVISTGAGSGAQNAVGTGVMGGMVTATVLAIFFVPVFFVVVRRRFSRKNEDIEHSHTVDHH
Nature of the test: fluorescence polarization titration of R6G with AcrB SMALP. In kind it is binding. An excerpt:
fluorescence polarization titration of R6G with AcrB SMALP on AcrB | measure the Kd value of rhodamine 6G binding.

Turning to “Escherichia coli multidrug transporter AcrB bearing a C-terminal octahistidine tag, in SMA lipid particles (SMALPs) (from UniProt P31224 1-1049) (natural protein)”, the stoichiometry N in test [1] and in test [2] was 3 in each case.

As for `CCN=c1cc2oc3cc(NCC)c(C)cc3c(-c3ccccc3C(=O)OCC)c-2cc1C` [rhodamine 6G], the equilibrium dissociation constant (Kd) (in general, a measure of binding affinity in units of concentration) on AcrB was determined as 52 ± 6.6 nM.
